# Reference: patent publication US20260097149A1 (RESEARCH FOUNDATION FOR THE STATE UNIVERSITY OF NEW YORK, published 2026)
# Biological target: T1, integrin α4β1 (human, UniProt P13612 34-1032; P05556 21-798)
# T1 construct: whole, on cells; Present on human PBMNC isolated from blood and on HUVEC; also called α4β1 integrin; CD49d (α4β1 integrin)
# Test: capture of PBMNC on immobilised H2R5 against blocking antibody and heparin-only control
# T1 sequence (P13612 34-1032, chain 1 of 2): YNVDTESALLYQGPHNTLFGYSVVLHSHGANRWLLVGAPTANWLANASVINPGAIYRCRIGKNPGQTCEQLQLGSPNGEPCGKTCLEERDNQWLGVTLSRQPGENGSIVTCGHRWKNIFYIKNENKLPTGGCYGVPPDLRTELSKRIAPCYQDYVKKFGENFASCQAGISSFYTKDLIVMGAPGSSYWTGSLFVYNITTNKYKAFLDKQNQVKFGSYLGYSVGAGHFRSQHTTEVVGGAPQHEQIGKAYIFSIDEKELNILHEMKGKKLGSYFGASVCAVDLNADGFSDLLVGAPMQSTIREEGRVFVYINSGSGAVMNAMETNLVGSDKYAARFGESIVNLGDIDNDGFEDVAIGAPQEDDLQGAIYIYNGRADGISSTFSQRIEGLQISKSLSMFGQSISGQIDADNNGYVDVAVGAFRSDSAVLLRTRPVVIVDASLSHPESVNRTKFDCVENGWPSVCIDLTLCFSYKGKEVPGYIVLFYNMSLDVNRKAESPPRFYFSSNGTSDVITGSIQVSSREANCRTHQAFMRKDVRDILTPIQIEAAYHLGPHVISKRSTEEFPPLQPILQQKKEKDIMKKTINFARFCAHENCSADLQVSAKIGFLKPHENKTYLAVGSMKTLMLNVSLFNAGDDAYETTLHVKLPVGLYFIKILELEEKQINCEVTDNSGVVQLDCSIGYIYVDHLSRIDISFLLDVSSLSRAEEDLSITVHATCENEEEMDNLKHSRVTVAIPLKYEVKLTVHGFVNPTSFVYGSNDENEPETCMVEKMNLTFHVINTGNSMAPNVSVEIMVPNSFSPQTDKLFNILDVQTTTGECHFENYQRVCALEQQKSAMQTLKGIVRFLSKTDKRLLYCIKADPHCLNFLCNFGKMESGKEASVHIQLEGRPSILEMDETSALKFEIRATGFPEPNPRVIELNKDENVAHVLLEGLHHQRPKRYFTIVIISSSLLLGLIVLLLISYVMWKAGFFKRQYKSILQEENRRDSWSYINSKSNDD
# T1 sequence (P05556 21-798, chain 2 of 2): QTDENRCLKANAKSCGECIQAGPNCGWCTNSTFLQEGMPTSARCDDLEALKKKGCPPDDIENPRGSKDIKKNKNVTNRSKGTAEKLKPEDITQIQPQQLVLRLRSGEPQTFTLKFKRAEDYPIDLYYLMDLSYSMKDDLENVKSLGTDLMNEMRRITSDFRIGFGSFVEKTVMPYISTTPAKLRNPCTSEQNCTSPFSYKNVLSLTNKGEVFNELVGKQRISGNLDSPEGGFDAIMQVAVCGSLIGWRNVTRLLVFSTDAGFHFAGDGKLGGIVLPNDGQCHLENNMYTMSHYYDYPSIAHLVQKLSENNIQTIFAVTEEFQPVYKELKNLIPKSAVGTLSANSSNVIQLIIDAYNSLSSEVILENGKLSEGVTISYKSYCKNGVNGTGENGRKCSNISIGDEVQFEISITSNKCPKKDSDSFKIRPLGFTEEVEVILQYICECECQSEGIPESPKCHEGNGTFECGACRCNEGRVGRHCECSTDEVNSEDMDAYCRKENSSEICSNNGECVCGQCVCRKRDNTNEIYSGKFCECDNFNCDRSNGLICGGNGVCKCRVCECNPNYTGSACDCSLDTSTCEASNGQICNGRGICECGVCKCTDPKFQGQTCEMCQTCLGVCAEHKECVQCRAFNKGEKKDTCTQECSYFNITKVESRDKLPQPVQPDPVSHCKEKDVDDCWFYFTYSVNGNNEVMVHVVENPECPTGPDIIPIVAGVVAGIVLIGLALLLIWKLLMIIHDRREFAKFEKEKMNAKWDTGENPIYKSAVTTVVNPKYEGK
binder,measurement,value
"H2R5 fusion protein, H2-(GGGS-…)5 (designed binder, no residue limits are stated; also called fusion peptide (H2R5); His tagged fusion protein) MGSSHHHHHHSSGLVPRGSHMASMTGGQQMGRGSAIPAPTDLKFTQGTPTSLSAQWTPPNVQLTGYRVRVTPKEKTGPMKEINLAPDSSSVVVSGLMVATKYEVSVYALKDTLTSRPAQGVVTTLENVSPPRRARVTDATETTITISWRTKTETITGFQVDAVPANGQTPIQRTIKPDVRSYTITGLQPGTDYKIYLYTLNDNARSSPVVIDASTAIDAPSNLRFLATTPNSLLVSWQPPRARITGYIIKYEKPGSPPREVVPRPRPGVTEATITGLEPGTEYTIYVIALKNNQKSEPLIGHKLGGGGSHIPREDVDYHGGGGSHIPREDVDYHGGGGSHIPREDVDYHGGGGSHIPREDVDYHGGGGSHIPREDVDYHLEHHHHHH",binding result,binds
